In the DeepSol protein solubility set:

experiment: soluble on expression in E. coli; label from the status in PepcDB or PDB records

Q: With “MLVRLGYVAMTMNLKDSSPSGTVTVKTLAGLNEDETRLNKLRKVTAANLHNTLRILRYNKAYNISVYRFTSKLVPLATHPMVSHWDYVGEFRNEFKSLGDFVKENNFRVSAHPDHYTLLNSPSKEVFEASVRDLDYHVKLFEAMGLEDYKYKLVMHIGGLYKNKQTSVERFKENYAILPDRIRKRLIFENDDKIYTARDVLDICKELKVPMVLDVHHHNCVNNGERLEDMLKEIFDTWKDEYFPPKIHFSTPKSKENFRSHADEIDVNEFYRFLQIAKKLKKDFDVMIEAKNKDNALFKLSRELKTFDDIRWIDEGHFEIR” as the sequence, how does the “soluble on expression in E. coli” value read?
A: Its value is “not soluble”.

Q: Which “soluble on expression in E. coli” value does the source give for “MFKRLSRFLLPLVWIFTATTALADDTQINTMDPYSMVKSVANKTFDRFHKDKALIDADADHLKVIVREELMPYIDYKYASYKVLGQYLKESTEDQRNRFVDAFQGYLVTTYAQAFTEYTNQKVEFSPGSDFSNEKIVDVNVQIIEAGRPPIKLLFKARRLKDDSWKAFDLVAEGVSLLSSKQSEISNLIRQQGIEPVIKMLEERTKDKVTKQPKAGKLEHHHHHH” here?
A: Its value is “soluble”.

Q: Which “soluble on expression in E. coli” value does the source give for “MGSDKIHHHHHHMTDDQIHQTDWLQRGRDVLDIEAEGIRAVRDRLGPSFESALALLAGCRGRVVVTGLGKSGLVGRKLAATFSSTGSPAFFLHPVEGAHGDMGSLKADDVVIAISNSGETDELNAILPSLRAIGTPIIALTGRADSSLGRGADIVLDCGVPREACPLGLAPTASTTAVLALGDALAVCLIDWKSFTENDFLRYHPGGSLGQRLRLRVAELMHTEGIPVVNEEAVCEEAVLALDKGGFGAVALTDGGGRLTGILTDGDVRRAVLRGTYGPRVGVTHIMTRNPRFARQTQSVAELIDIMEQKAITVLPITDDDHRLVGLVHLHDLLGKGGVTFAG” here?
A: Its value is “not soluble”.

Q: Which “soluble on expression in E. coli” value does the source give for “MTEILQTLKEYIPISLEEMSGIKLMNRTDTKYVTSYQILKEILLAAGHDYRVQEVNGEYNIAYHTIYLDTADRDMYLTHQNGRVVREKIRIRTYVDSDLTFLEVKNKNNKGRTDKKRIRIGSIDTIKEDGGEAFLRQHAWYEQSQLLPLLENSFRRITLVNKHKTERLTIDTGVTFCCLQSGKISSLDNIVIIELKRDGHNSSPIKEILRKLHIQSSGFSKYCIGSALTVSHLKCNRLKPKLRMLNKMGVY” here?
A: Its value is “not soluble”.

Q: For “MGSDKIHHHHHHMSSEKLRVAAIDLGTNSFHMVIVEESEEKGIVEIDRVKDMICIGRGSISTKRLDDGAMEAGVATLRNFIVLATQRGVALHNILAFATSAIREADNRDEFIDMVRRETGLKIRVITGKEEAQFIYYGVRNAVTLRDKPDLLFDIGGGSVEFIIADKSKVHLLESRKIGVARMLERFVTTDPVSAHELHLLQQFFAAEMYGGAAEMAHELGVSRAIASSGTAQNIARMIRLGKHADGADVLNQSSFTRQEFESFYRQVIAMDASARRKLTGLDEKRVDLIVPGLILFDTIFRVFGIKDVVISDSALREGMVLHQIALIRGRDGSSQLDIRRQSVMELGYRCNWHKPHSEQVARLALMLFDELHPLHGLKERYRELLEYAAMLHNIGEFISISAHHKHSQYIIMNADLRGFSPTEIDIIGNVARYHRKQPPTERHPLYSQLKPSHRRVVDVLSGILRIANGLERGHRQNVQSITARIDQERIVLEALTQFEPDIELWAACGLKEWLEEVLGKPILIEARVR”, which “soluble on expression in E. coli” value is on record?
A: Its value is “not soluble”.

Q: Which “soluble on expression in E. coli” value does the source give for “MSAPLKHPNAVVLQPPTVTISPLIRFGRYAALSLGVVYGFFRLRQIREYHADIREWDHEKAVAAAEEAAKKKKWLAKDEMRYLMQVVNIPFEEGVKQFGVADLYKED” here?
A: Its value is “not soluble”.

Q: For “MGSDKIHHHHHHMRPIKNAKKIDYNLIKVFDTVITEGNATRAARKLDVTPAAISQALLRLQNLYGEELFIRTRKGLVPSSKGKSLHQVFRQAIESIESTLCDKTDAQESNELIVLGGDITENYYFPALLDTVLMNRYIIKHYAIKKTGEYSPASMLTHGYADVIMGILEIKNEMIESYLIDNLSDFVCVCGEKSPLVGLEKMSLYNFYAARHAVYHSDMFSSFTADSIDLFKSSTPYAGRREIGYYSDSLFGVIDIVEKSDMVAILPGKIATYFRDVRRYNIKILRMPDEMIFRTLPVYAYLATNSTHYKNVKKLISTFQSTFLFSQEKQPDALVEGSTSLCDLSV”, which “soluble on expression in E. coli” value is on record?
A: The value was “not soluble”.

Q: With “MKKRRFPRVNAVLSRWGVALSDARETQAEQARLADFEARGGLEAPAYALSPGMRTFDLAPLVEEYAQHGEALAALHDPARNQTGYRSGNGYYDTPDAEALYLMIRRYQPRRVIEVGCGNSTRITRQAALDGGLETEITAIDPWPRADIAGVVDRFEQARLEEVDPAVFAALEADDVLFIDSSHQVRMSNDVAHLFCRIIPALAPGVVIHVHDVFLPYEYPKRFFYDCPSWAEQYVLHALIQSGGYDILWPGYYLQRARPDAVEALPFLGQGRAQSFWIRKL” as the sequence, how does the “soluble on expression in E. coli” value read?
A: The value was “not soluble”.

Q: For “MVNFVAKDIYTKDSIQRGGQDVIIEKHEIQIDQITSGKVNIFTFYRNRKQIDDHFLRLQEPSLTANYFFHFHFDAESLHLLQKEFPSVYPYDGSETIHDWTEKMKAELQHQIQTGKWNKRVRIGNRILDVVFTWCDEDIVE”, which “soluble on expression in E. coli” value is on record?
A: Its value is “not soluble”.

Q: For “MGSDKIHHHHHHMKVLDVIKQIQQAIVYIEDRLLEPFNLQELSDYVGLSPYHLDQSFKMIVGQSPEEYARARKMTIAANDVVNGASRLMDVAKKYRYANSNDFANDFSDFHGISPIQATTKKDELKIQQRLYIKLSTTENAPYTYRLQETDDISLVGYSRFIPTEQLSNPFNIPDFLEDLLVDGYIKELKRYNDTSPYELFVVSCPLEQGLEIFVGVPSERYPSHLESRFLPGRHYALFNLQGEIDYATNEAWYYIESSLQLTLPYERNSLYVEIYPLDISFNDPFTKIQLWLPIKQEIYDLDEGYQN”, which “soluble on expression in E. coli” value is on record?
A: Its value is “not soluble”.

Q: With “SLSEVEIEEVRLNPDEPQYTMDGLDGRRFDEQGYLKEHLSSKGAKQFPESSDIHFDSPHLVFFQEGRLLYEVGSDEAVYHTENKQVLFKNNVVLTKTADGKRQAGKVEAEKLHVDTESQYAQTDTPVSFQYGASHGQAGGMTYDHKTGMLNFSSKVKATIYDTKDM” as the sequence, how does the “soluble on expression in E. coli” value read?
A: Its value is “not soluble”.

Q: With “MADDFAYLNARVRVRRGTLLKESFFQEALDLSFADFLRLLSETVYGGELAGQGLPDVDRAVLRTQAKLVGDLPRLVTGEAREAVRLLLLRNDLHNLQALLRAKATGRPFEEVLLLPGTLREEVWRQAYEAQDPAGMAQVLAVPGHPLARALRAVLRETQDLARVEALLAKRFFEDVAKAAKGLDQPALRDYLALEVDAENLRTAFKLQGSGLAPDAFFLKGGRFVDRVRFARLMEGDYAVLDELSGTPFSGLSGVRDLKALERGLRCVLLKEAKKGVQDPLGVGLVLAYVKEREWEAVRLRLLARRAYFGLPRAQVEEEVVCP” as the sequence, how does the “soluble on expression in E. coli” value read?
A: The value was “soluble”.

Q: With “MAILIELQDICVDFEQRRVLDNIRLTLTKGNITTLIGPNGAGKSTLVKVILGLQSLSSGKIIRQSGIRIGYVPQKLKLNDTLPLTVNRFLKLAGRFSTQELSEALRLVGGEHLQSSDMHKLSGGETQRVLLARALLQRPDLLVLDEPAQGVDVQGQIDLYDLIHTLRNRFGCAVLMVSHDLHLVMAKTDEVICLQHHVCCSGSPESIAKHPSYLAMFGHRSRDTLAFYQHHHEHHHHDLSGLPVKGKASVCSHHSHGHHKHD” as the sequence, how does the “soluble on expression in E. coli” value read?
A: Its value is “not soluble”.

Q: Which “soluble on expression in E. coli” value does the source give for “AHHHHHHASAKWVCKICGYIYDEDAGDPDNGISPGTKFEELPDDWVCPICGAPKSEFEKLEDGSIEIRTHTALHVLKGAVVKVLGEGAKWTASVYVNGNHGRLTVKFNRKPTHEEIREIERLANEKIKENVPIQIYELSREEAEKIFGDEMYDLFPVPEHVRTLKVVVIEDWNVNACNKEHTKTTGEIGEIKIRKVRFRKSKELLEISFDVL” here?
A: The value was “soluble”.

Q: For “MGSDKIHHHHHHMEVFMITKRPIYNQQLKCVAFEILSCRNVMLNEELTRQLYDLIYHTDTQLPLFVPFSLKKLLEQFETPINNPIILKLSADEIESVYSLTELQDSLFSIALLINTPQQLAWLNFAEYIGLTEQLMSKSDVTKVVQYSKAKNRKIIAYDLNQHVNFEKCKAMTMDYYCGDFLLNSIAEEGTEIAANKLNVLQLIQELQKEDCDLNEITHIIQADPLLSYQLLKLVNSVGFSSGPSIESIDQAVARLGIINLKKWVMLFSMKNISDKPIEVLESGLIRAHMAEELAKKSSNIFSQSAYTAGLLSILDCLLNKPMPALVEQITLAEEIKDALTNKSGPLGDLLSLVIAYEEGHWEEVTQLNINGIDLSQLYIDSLALVSQGTKIMSN”, which “soluble on expression in E. coli” value is on record?
A: The value was “not soluble”.

Q: With “MPLTGEYEPSPSKWAADQAELMESTDGAKGTTLGGRPVVLLTTRGAKSGKIRKTPLMRVEHDGTYAIVASLGGAPKNPVWYYNVKAEPHVELRDGSATQDMVAREVTGDERATWWDRAVAAFPDYAEYQKKTDREIPVFVLEPA” as the sequence, how does the “soluble on expression in E. coli” value read?
A: The value was “not soluble”.
